Experimental data as given in article PMC2864356 (Biochemistry, 2010).

What was measured:
Test in all cases: inhibition of PDE activity
[1] = molecular target: PDE5/6cd I802A/P803D/M804L (human) (UniProt O76074)
PDE5/6cd P803D (human) = PDE5/6cd P803D (human) (UniProt O76074)
PDE5/6cd V796E (human) = PDE5/6cd V796E (human) (UniProt O76074)
PDE5/6cd I802T (human) = PDE5/6cd I802T (human) (UniProt O76074)
[2] = molecular target: chimeric PDE5/PDE6 catalytic domain PDE5/6cd (human) (UniProt O76074)
PDE5/6cd M804L (human) = PDE5/6cd M804L (human) (UniProt O76074)
PDE5/6cd F823A (human) = PDE5/6cd F823A (human) (UniProt O76074)
[3] = molecular target: PDE5/6cd I802T/P803D/M804L (human) (UniProt O76074)
PDE5/6cd I802A (human) = PDE5/6cd I802A (human) (UniProt O76074)
PDE5/6cd M804A (human) = PDE5/6cd M804A (human) (UniProt O76074)
[4] = molecular target: PDE5/6cd I802A//M804A (human) (UniProt O76074)
PDE5/6cd Q799I (human) = PDE5/6cd Q799I (human) (UniProt O76074)
PDE5/6cd L792R (human) = PDE5/6cd L792R (human) (UniProt O76074)
[5] = molecular target: PDE5/6cd L792R/V796E/Q799I (human) (UniProt O76074)
[6] = molecular target: PDE5cd T802I/D803P/L804M/A823F (human, UniProt O76074 535-860, T802I | D803P | L804M | A823F)
[7] = molecular target: PDE5cd R792L/E796V/I799Q/A823F (human, UniProt O76074 535-860, R792L | E796V | I799Q | A823F)
PDE5cd A823F = PDE5cd A823F (human, UniProt O76074 535-860, A823F)

Molecule	Ki [1] [µM]	Ki (PDE5/6cd P803D (human)) [µM]	Ki (PDE5/6cd V796E (human)) [µM]	Ki (PDE5/6cd I802T (human)) [µM]	Ki [2] [µM]	Ki (PDE5/6cd M804L (human)) [µM]	Ki (PDE5/6cd F823A (human)) [µM]	Ki [3] [µM]	Ki (PDE5/6cd I802A (human)) [µM]	Ki (PDE5/6cd M804A (human)) [µM]	Ki [4] [µM]	Ki (PDE5/6cd Q799I (human)) [µM]	Ki (PDE5/6cd L792R (human)) [µM]	Ki [5] [µM]	Ki [6] [µM]	maximal inhibition (%) [6] [%]	Ki [7] [µM]	maximal inhibition (%) [7] [%]	Ki (PDE5cd A823F) [µM]	maximal inhibition (%) (PDE5cd A823F)
Pγ C-terminal peptide Pγ_(63-87) (from UniProt P04972 63-87)	25.5	6.7	1.8	8.6	1.7	2	15.1	21.8	12.1	10.3	26.2	3.5	3.2	6	–	–	–	–	–	–
DITVICPWEAFNHLELHELAQYGII (peptide, UniProt P04972 63-87, looked up) [Pγ C-terminal peptide Pγ_(63-87)]	–	–	–	–	–	–	–	–	–	–	–	–	–	–	19.4	72 ± 4	23.5	78 ± 5	44.3	52 ± 4
